From the RNAGym collection of RNA variant scans (doi:10.1021/acssynbio.7b00057)

B1: Pistol ribozyme (parent)
chain: GGGUCGUUGUUCCAUAAUCGCGUGGAUAUGGCACGCAAGUUUCUACCGGGCACCGUAAAUGUCCGACUGGAGCCGUUCGGGCGGCUAUAAACAGACCUCAGGCCCGAAGCGUGGCGGCACCUGCCGCCGGUGGUAAAAAAGAUCGGAAGAGCACACGUCU

Variants of: B1
Test: aptazyme ON/OFF ratio, guanine; higher = stronger switching; co-transcriptional cleavage with and without guanine

Variant	aptazyme ON/OFF ratio
GGGUCGAGGAAAAAUAAUCGCGUGGAUAUGGCACGCAAGUUUCUACCGGGCACCGUAAAUGUCCGACUGGAGCCGUUCGGGCGGCUAUAAACAGACCUCAGGCCCGAAGCGUGGCGGCACCUGCCGCCGGUGGUAAAAAAGAUCGGAAGAGCACACGUCU [U7A U8G U10A U11A C12A C13A]	1.34
GGGUCGAGGAUAAAUAAUCGCGUGGAUAUGGCACGCAAGUUUCUACCGGGCACCGUAAAUGUCCGACUGGAGCCGUUCGGGCGGCUAUAAACAGACCUCAGGCCCGAAGCGUGGCGGCACCUGCCGCCGGUGGUAAAAAAGAUCGGAAGAGCACACGUCU [U7A U8G U10A C12A C13A]	1.17
GGGUCGAGGAUAGAUAAUCGCGUGGAUAUGGCACGCAAGUUUCUACCGGGCACCGUAAAUGUCCGACUGGAGCCGUUCGGGCGGCUAUAAACAGACCUCAGGCCCGAAGCGUGGCGGCACCUGCCGCCGGUGGUAAAAAAGAUCGGAAGAGCACACGUCU [U7A U8G U10A C12A C13G]	1.23
GGGUCGAGGAUAUAUAAUCGCGUGGAUAUGGCACGCAAGUUUCUACCGGGCACCGUAAAUGUCCGACUGGAGCCGUUCGGGCGGCUAUAAACAGACCUCAGGCCCGAAGCGUGGCGGCACCUGCCGCCGGUGGUAAAAAAGAUCGGAAGAGCACACGUCU [U7A U8G U10A C12A C13U]	1.48
GGGUCGAGGAUUGAUAAUCGCGUGGAUAUGGCACGCAAGUUUCUACCGGGCACCGUAAAUGUCCGACUGGAGCCGUUCGGGCGGCUAUAAACAGACCUCAGGCCCGAAGCGUGGCGGCACCUGCCGCCGGUGGUAAAAAAGAUCGGAAGAGCACACGUCU [U7A U8G U10A C12U C13G]	1.25
GGGUCGAGGAUUAAUAAUCGCGUGGAUAUGGCACGCAAGUUUCUACCGGGCACCGUAAAUGUCCGACUGGAGCCGUUCGGGCGGCUAUAAACAGACCUCAGGCCCGAAGCGUGGCGGCACCUGCCGCCGGUGGUAAAAAAGAUCGGAAGAGCACACGUCU [U7A U8G U10A C12U C13A]	1.32
GGGUCGAGGAUUUAUAAUCGCGUGGAUAUGGCACGCAAGUUUCUACCGGGCACCGUAAAUGUCCGACUGGAGCCGUUCGGGCGGCUAUAAACAGACCUCAGGCCCGAAGCGUGGCGGCACCUGCCGCCGGUGGUAAAAAAGAUCGGAAGAGCACACGUCU [U7A U8G U10A C12U C13U]	1.42
GGGUCGAGGAUGGAUAAUCGCGUGGAUAUGGCACGCAAGUUUCUACCGGGCACCGUAAAUGUCCGACUGGAGCCGUUCGGGCGGCUAUAAACAGACCUCAGGCCCGAAGCGUGGCGGCACCUGCCGCCGGUGGUAAAAAAGAUCGGAAGAGCACACGUCU [U7A U8G U10A C12G C13G]	1.26
GGGUCGAGGAUGAAUAAUCGCGUGGAUAUGGCACGCAAGUUUCUACCGGGCACCGUAAAUGUCCGACUGGAGCCGUUCGGGCGGCUAUAAACAGACCUCAGGCCCGAAGCGUGGCGGCACCUGCCGCCGGUGGUAAAAAAGAUCGGAAGAGCACACGUCU [U7A U8G U10A C12G C13A]	1.24
GGGUCGAGGAUGUAUAAUCGCGUGGAUAUGGCACGCAAGUUUCUACCGGGCACCGUAAAUGUCCGACUGGAGCCGUUCGGGCGGCUAUAAACAGACCUCAGGCCCGAAGCGUGGCGGCACCUGCCGCCGGUGGUAAAAAAGAUCGGAAGAGCACACGUCU [U7A U8G U10A C12G C13U]	1.21
GGGUCGAGGAACCAUAAUCGCGUGGAUAUGGCACGCAAGUUUCUACCGGGCACCGUAAAUGUCCGACUGGAGCCGUUCGGGCGGCUAUAAACAGACCUCAGGCCCGAAGCGUGGCGGCACCUGCCGCCGGUGGUAAAAAAGAUCGGAAGAGCACACGUCU [U7A U8G U10A U11A]	2.54
GGGUCGAGUUGUCAUAAUCGCGUGGAUAUGGCACGCAAGUUUCUACCGGGCACCGUAAAUGUCCGACUGGAGCCGUUCGGGCGGCUAUAAACAGACCUCAGGCCCGAAGCGUGGCGGCACCUGCCGCCGGUGGUAAAAAAGAUCGGAAGAGCACACGUCU [U7A U8G G9U U11G C12U]	1.26
GGGUCGAGUUGGCAUAAUCGCGUGGAUAUGGCACGCAAGUUUCUACCGGGCACCGUAAAUGUCCGACUGGAGCCGUUCGGGCGGCUAUAAACAGACCUCAGGCCCGAAGCGUGGCGGCACCUGCCGCCGGUGGUAAAAAAGAUCGGAAGAGCACACGUCU [U7A U8G G9U U11G C12G]	1.56
GGGUCGAGUUGACAUAAUCGCGUGGAUAUGGCACGCAAGUUUCUACCGGGCACCGUAAAUGUCCGACUGGAGCCGUUCGGGCGGCUAUAAACAGACCUCAGGCCCGAAGCGUGGCGGCACCUGCCGCCGGUGGUAAAAAAGAUCGGAAGAGCACACGUCU [U7A U8G G9U U11G C12A]	1.38
GGGUCGAGUUGUAAUAAUCGCGUGGAUAUGGCACGCAAGUUUCUACCGGGCACCGUAAAUGUCCGACUGGAGCCGUUCGGGCGGCUAUAAACAGACCUCAGGCCCGAAGCGUGGCGGCACCUGCCGCCGGUGGUAAAAAAGAUCGGAAGAGCACACGUCU [U7A U8G G9U U11G C12U C13A]	1.18
GGGUCGAGUUGUGAUAAUCGCGUGGAUAUGGCACGCAAGUUUCUACCGGGCACCGUAAAUGUCCGACUGGAGCCGUUCGGGCGGCUAUAAACAGACCUCAGGCCCGAAGCGUGGCGGCACCUGCCGCCGGUGGUAAAAAAGAUCGGAAGAGCACACGUCU [U7A U8G G9U U11G C12U C13G]	1.29
GGGUCGAGUUGUUAUAAUCGCGUGGAUAUGGCACGCAAGUUUCUACCGGGCACCGUAAAUGUCCGACUGGAGCCGUUCGGGCGGCUAUAAACAGACCUCAGGCCCGAAGCGUGGCGGCACCUGCCGCCGGUGGUAAAAAAGAUCGGAAGAGCACACGUCU [U7A U8G G9U U11G C12U C13U]	1.29
GGGUCGAGUUGCCAUAAUCGCGUGGAUAUGGCACGCAAGUUUCUACCGGGCACCGUAAAUGUCCGACUGGAGCCGUUCGGGCGGCUAUAAACAGACCUCAGGCCCGAAGCGUGGCGGCACCUGCCGCCGGUGGUAAAAAAGAUCGGAAGAGCACACGUCU [U7A U8G G9U U11G]	1.94
